From PMC8922275, “DNA-Dependent Binding of Nargenicin to DnaE1 Inhibits Replication in Mycobacterium tuberculosis” (ACS Infectious Diseases, 2022)

Experiments:
[1] = target: T1, DnaE1 (Mycobacterium tuberculosis, UniProt P9WNT7); assay: ([…] Å) with DNA; […]; type: biochemical
T1 construct: full-length
T1 sequence (P9WNT7 1-1184): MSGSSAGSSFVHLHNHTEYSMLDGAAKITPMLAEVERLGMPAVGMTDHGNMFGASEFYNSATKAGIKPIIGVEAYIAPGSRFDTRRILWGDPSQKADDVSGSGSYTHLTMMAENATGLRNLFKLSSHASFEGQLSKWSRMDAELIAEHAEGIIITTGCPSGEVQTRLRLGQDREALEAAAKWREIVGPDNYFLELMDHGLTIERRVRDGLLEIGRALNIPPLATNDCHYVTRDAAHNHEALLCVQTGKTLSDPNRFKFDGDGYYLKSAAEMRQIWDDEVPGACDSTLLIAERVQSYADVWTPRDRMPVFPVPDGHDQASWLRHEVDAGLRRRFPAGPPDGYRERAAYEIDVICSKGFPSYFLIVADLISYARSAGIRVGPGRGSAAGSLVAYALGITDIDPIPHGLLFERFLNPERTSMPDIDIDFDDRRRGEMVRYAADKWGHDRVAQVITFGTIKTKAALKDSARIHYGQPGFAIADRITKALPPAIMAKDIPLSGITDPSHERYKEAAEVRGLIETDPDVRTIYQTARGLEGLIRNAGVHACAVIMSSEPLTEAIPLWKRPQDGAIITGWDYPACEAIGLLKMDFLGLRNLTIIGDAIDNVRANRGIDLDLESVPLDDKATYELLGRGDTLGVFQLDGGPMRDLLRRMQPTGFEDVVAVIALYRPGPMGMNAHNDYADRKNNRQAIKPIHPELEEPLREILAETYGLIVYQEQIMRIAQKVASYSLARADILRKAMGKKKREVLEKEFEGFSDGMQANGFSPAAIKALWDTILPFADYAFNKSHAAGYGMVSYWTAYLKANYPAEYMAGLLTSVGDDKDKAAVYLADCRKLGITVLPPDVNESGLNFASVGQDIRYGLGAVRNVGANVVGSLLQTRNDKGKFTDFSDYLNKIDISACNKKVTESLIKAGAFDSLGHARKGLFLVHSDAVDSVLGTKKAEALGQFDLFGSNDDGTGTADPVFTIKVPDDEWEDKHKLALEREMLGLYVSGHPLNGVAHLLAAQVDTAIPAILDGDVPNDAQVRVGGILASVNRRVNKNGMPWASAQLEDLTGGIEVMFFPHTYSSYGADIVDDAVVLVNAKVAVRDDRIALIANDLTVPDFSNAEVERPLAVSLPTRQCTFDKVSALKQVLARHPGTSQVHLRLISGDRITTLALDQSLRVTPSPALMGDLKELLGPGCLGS

[2] = target: T2, DNA polymerase III α (Pol IIIα) (Escherichia coli, UniProt P10443); assay: real-time fluorescence-quench DNA polymerase assay; type: biochemical
T2 construct: gene dnaE
T2 sequence (P10443 whole entry): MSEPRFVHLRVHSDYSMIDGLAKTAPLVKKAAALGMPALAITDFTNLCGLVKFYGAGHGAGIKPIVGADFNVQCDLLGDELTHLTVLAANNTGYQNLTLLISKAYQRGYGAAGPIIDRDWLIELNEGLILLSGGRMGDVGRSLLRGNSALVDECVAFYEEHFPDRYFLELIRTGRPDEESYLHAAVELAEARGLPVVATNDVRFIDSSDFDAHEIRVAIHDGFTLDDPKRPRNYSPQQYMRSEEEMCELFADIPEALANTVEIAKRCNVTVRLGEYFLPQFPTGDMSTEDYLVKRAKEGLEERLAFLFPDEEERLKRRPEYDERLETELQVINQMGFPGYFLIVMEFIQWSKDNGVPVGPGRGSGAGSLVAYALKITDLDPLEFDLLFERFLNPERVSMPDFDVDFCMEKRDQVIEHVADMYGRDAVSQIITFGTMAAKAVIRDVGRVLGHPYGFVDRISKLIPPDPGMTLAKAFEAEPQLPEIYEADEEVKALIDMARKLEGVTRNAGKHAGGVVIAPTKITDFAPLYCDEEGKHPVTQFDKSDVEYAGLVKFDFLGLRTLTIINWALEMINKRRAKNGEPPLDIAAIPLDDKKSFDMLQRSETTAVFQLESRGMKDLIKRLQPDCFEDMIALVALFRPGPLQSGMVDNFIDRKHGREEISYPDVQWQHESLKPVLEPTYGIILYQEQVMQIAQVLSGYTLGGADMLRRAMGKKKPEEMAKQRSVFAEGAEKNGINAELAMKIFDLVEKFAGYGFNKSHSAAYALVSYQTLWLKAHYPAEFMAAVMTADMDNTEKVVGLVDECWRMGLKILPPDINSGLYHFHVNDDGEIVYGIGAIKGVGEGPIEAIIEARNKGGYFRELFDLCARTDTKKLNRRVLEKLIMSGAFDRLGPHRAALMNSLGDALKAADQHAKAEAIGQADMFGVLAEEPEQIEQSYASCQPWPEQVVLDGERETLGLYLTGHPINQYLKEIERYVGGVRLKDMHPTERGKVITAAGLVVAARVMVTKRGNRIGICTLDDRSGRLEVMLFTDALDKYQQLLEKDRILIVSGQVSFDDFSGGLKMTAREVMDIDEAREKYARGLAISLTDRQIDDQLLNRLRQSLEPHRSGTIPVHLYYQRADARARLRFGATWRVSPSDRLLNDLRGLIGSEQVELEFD

[3] = target: DnaE (Staphylococcus aureus, UniProt Q5HF71); assay: real-time fluorescence-quench DNA polymerase assay (text […]; Figure […] legend […]); type: biochemical
[4] = target: T3, DnaE (replicative DNA polymerase) (Staphylococcus aureus, UniProt Q9F1K0 1-1065); assay: fluorescence anisotropy; Anisotropy: 5 nM DNA, 25 mM HEPES pH 7.5, 50 mM potassium glutamate, 2 mM DTT, 0.5 mg/mL BSA, 24 °C. Cryo-EM: 20 mM PIPES pH 7.0, 50 mM potassium glutamate, 5 mM MgCl2, 2 mM DTT, 0.01% Tween-20; settings: protein: recombinant; label: 5'-Cy3 on primer (strand 1); 24 bp duplex, 5' overhang 30 nt on template
T3 sequence: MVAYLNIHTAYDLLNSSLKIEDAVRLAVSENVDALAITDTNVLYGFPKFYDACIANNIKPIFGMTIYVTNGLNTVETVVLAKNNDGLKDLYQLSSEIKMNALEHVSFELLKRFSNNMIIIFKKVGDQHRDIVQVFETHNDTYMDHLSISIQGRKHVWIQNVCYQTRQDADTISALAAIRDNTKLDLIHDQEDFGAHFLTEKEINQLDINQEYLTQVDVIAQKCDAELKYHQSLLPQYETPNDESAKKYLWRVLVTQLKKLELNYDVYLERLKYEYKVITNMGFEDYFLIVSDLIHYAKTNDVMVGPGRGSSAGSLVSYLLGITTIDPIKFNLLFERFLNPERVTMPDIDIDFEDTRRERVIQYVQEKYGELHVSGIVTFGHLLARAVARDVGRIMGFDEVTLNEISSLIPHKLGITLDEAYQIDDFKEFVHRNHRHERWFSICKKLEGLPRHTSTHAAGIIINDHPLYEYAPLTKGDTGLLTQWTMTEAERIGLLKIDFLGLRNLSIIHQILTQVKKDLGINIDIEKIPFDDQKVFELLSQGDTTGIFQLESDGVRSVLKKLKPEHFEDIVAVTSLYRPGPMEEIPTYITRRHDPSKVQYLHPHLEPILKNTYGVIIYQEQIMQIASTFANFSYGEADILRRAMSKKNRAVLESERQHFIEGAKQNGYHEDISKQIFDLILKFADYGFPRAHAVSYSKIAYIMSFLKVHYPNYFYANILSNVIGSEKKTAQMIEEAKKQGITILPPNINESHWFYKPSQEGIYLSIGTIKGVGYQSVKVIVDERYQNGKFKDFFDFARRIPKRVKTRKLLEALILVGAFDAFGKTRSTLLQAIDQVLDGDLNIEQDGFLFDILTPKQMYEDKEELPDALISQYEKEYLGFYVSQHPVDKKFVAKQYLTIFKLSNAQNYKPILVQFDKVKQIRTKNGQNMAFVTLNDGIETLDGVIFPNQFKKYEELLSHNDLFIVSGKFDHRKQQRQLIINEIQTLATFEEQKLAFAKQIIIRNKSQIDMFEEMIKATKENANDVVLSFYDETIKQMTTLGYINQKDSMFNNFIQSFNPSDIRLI

[5] = target: DnaE S765L (Staphylococcus aureus, UniProt Q9F1K0 1-1065, S765L); assay: as above; settings: protein: recombinant; label: 5'-Cy3 on primer (strand 1); 24 bp duplex, 5' overhang 30 nt on template
[6] = target: Pol IIIα (replicative DNA polymerase) (Escherichia coli, UniProt P10443 1-1160); assay: as above; settings: protein: recombinant; label: 5'-Cy3 on primer (strand 1); 24 bp duplex, 5' overhang 30 nt on template
[7] = target: T4, DnaE1 (replicative DNA polymerase) (Mycobacterium tuberculosis, UniProt P9WNT7 1-1184); assay: fluorescence anisotropy; settings: protein: recombinant; label: 5'-Cy3 on primer (strand 1); 24 bp duplex, 5' overhang 30 nt on template
T4 sequence: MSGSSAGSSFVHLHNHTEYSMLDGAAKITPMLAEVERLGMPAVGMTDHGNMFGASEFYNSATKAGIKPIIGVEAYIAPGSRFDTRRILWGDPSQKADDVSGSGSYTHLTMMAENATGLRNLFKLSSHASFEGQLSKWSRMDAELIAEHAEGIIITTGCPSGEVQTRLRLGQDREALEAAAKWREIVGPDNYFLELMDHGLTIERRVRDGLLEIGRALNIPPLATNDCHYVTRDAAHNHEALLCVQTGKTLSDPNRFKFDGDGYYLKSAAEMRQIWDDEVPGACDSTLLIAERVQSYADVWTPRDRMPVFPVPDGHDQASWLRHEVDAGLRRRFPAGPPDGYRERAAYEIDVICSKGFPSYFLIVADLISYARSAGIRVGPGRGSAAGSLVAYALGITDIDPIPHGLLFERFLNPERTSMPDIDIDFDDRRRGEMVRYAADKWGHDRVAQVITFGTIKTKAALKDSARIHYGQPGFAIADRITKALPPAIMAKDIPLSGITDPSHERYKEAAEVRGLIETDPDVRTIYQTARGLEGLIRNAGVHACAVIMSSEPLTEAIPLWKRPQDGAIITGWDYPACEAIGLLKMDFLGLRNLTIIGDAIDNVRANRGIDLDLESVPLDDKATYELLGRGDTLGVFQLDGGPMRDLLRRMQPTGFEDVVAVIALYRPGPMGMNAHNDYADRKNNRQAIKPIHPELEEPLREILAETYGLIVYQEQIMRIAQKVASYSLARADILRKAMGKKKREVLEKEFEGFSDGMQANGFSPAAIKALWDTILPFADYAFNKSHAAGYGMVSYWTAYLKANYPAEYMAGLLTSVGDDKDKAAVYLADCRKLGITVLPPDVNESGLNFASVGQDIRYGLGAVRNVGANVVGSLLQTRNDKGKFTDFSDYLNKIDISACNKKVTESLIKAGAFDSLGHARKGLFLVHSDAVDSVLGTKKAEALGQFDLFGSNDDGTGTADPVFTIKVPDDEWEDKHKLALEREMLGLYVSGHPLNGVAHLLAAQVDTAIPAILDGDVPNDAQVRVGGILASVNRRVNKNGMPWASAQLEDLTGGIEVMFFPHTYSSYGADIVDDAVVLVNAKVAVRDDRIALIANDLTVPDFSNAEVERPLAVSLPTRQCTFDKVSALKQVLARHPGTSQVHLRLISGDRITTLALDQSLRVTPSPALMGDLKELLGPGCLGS

[8] = target: T4, DnaE1 (replicative DNA polymerase); assay: cryo-EM structure (2.9 Å); 10 uM nargenicin, 5 mM MgCl2; settings: protein: recombinant

COC1CC2C=CC3C4OC2(/C(C)=C/C(C)C(C(C)O)OC1=O)C3C(O)C(C)C4OC(=O)c1ccc[nH]1 (centres unmarked) [nargenicin]
IC50 [1]: 125 nM | IC50 [2]: 13000 nM | IC50 [3]: 6 nM

B1: primed DNA substrate (anisotropy) (dsDNA)
DNA 1: GGTAACGCCAGGGTTTTCCCAGTC
DNA 2: CGCTCACTGGCCGTCGTTTTACAACGTCGTGACTGGGAAAACCCTGGCGTTACC
Kd [4]: 6 nM | Kd [5]: 85 nM | Kd [6]: 12000 nM | Kd [7]: 250 nM

B2: cryo-EM primer/template substrate (dsDNA)
DNA 1: GCACCTAAAGTTGGGAGTCCTTCGTCCTT
DNA 2: GATAGAGCAGAAGGACGAAGGACTCCCAACTTTAGGTG
modifications: phosphorothioate bond between the last two nt of the primer (T*T)
binding result [8]: binds
